# Literature values as cited in publication PMC2725201.
# Where two headings read alike, the source gives them in different places.
# Key:
# C3a C3a (Homo sapiens) = C3a C3a (Homo sapiens) (UniProt P01024)
# C5a C5a (Homo sapiens) [1] = molecular target: C5a C5a (Homo sapiens) (UniProt P01031)
# C5a C5a (Homo sapiens) [2] = molecular target: C5a C5a (Homo sapiens) (UniProt P01031); remark: listed apart in the source
# [3] = molecular target: C5a-desArg C5a-desArg (Homo sapiens) (UniProt P01031)
# Sequence of C5a-desArg C5a-desArg (Homo sapiens) (P01031 678-750): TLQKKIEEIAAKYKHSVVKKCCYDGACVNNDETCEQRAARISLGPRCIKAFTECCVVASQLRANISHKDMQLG
# Sequence of C5aR (P21730 whole entry): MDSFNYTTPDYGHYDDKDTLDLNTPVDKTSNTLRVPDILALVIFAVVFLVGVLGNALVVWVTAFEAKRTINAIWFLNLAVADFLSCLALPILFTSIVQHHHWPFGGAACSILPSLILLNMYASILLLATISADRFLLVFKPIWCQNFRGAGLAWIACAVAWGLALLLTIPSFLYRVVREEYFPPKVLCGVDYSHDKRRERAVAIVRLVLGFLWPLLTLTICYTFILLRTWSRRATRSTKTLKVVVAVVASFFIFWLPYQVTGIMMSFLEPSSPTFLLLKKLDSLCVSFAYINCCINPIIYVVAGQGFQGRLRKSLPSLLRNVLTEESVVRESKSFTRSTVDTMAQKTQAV
# Sequence of C5a C5a (Homo sapiens) (P01031 675-754): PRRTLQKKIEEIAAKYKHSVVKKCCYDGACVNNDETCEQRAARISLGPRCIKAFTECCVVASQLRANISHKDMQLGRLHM
# Sequence of C3a C3a (Homo sapiens) (P01024 669-751): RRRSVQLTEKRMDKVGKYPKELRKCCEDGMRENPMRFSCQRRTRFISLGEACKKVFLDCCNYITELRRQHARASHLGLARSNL
# Sequence of C3aR (Q16581 whole entry): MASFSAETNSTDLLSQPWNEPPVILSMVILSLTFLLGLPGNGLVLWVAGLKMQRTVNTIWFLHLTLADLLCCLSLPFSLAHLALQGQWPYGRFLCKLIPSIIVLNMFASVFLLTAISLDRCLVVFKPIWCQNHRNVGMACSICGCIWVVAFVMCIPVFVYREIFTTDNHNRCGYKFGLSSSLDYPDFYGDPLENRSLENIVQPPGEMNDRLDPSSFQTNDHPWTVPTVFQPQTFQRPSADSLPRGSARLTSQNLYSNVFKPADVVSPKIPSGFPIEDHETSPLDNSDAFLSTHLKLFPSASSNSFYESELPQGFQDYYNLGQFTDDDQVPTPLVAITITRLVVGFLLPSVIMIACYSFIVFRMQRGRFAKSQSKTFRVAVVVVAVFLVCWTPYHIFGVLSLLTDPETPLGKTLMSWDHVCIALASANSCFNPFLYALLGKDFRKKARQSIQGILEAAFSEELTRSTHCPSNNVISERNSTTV
# Sequence of C5L2 (Q9P296 whole entry): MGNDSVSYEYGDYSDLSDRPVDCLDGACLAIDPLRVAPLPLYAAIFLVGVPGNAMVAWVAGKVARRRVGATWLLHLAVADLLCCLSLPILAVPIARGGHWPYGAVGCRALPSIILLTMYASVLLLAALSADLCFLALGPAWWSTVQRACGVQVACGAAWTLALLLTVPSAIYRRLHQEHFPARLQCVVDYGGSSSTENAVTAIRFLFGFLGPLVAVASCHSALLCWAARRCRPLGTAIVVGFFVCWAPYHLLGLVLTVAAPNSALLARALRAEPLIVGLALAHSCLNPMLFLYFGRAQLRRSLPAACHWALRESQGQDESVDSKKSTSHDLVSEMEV
substance,measurement,setting,value
C3aR (from UniProt Q16581),Kd,C3a C3a (Homo sapiens),1 nM
C5L2 (from UniProt Q9P296),Kd,C5a C5a (Homo sapiens) [1],2.5 nM
C5aR (from UniProt P21730),Kd,C5a C5a (Homo sapiens) [2],1 nM
same,Kd,[3],660 nM
